Among the data in publication PMC12062221 are Kd, KD of one of two binding sites and KD of the other of two binding sites values, retold here.

pKd: −log10 of the molar value.

Assay [1] has as its target fluorescently labeled human H2a(G129C)-H2b dimer (human) (UniProt P04908). The assay can be described thus: MST.
For assay [2], the target named is human histone (H3-H4)2 tetramer (human) (UniProt P68431). As to the kind of experiment: MST.

As a reminder, the pKd is the Kd on a negative log10 scale, so that one unit is a factor of ten. The low end stands for a high Kd, the high end for a low Kd. For “αSyn(1-131) (from UniProt P37840 1-131) (domain or fragment)”, in assay [1], the pKd is 4.49.

As for “αSyn(121-140) peptide (from UniProt P37840 121-140)”, in assay [1], the KD of one of two binding sites came out at 0.5 µM and the KD of the other of two binding sites was found to be 2.6 µM.

Take “αSyn(1-103) (from UniProt P37840 1-103) (domain or fragment)”: in assay [2], the pKd was 6.97.
